Measurements reported in US20220098307A1 (WUHAN YZY BIOPHARMA, published 2022).
Numbering of substitutions follows the chain as printed.

B1: BCMA-M2-WT (bispecific antibody, human IgG1, kappa)
chain: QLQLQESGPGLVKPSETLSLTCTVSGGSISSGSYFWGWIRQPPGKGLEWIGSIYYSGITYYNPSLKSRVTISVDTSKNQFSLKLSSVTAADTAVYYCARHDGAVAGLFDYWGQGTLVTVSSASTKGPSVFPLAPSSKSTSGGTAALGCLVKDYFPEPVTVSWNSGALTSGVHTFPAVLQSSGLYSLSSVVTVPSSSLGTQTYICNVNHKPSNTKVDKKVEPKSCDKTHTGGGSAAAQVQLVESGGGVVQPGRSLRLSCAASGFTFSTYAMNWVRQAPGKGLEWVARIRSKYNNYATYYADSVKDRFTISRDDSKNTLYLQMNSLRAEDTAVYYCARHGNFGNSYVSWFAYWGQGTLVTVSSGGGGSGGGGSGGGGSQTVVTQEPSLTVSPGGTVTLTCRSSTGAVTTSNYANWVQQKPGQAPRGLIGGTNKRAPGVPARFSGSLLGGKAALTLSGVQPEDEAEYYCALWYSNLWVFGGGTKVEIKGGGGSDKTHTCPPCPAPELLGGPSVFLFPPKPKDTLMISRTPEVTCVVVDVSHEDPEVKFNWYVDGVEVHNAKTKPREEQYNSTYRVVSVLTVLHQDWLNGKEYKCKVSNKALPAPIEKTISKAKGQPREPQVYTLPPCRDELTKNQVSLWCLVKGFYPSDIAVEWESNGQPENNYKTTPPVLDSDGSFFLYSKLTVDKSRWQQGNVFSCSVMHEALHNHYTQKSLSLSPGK
heavy: QLQLQESGPGLVKPSETLSLTCTVSGGSISSGSYFWGWIRQPPGKGLEWIGSIYYSGITYYNPSLKSRVTISVDTSKNQFSLKLSSVTAADTAVYYCARHDGAVAGLFDYWGQGTLVTVSSASTKGPSVFPLAPSSKSTSGGTAALGCLVKDYFPEPVTVSWNSGALTSGVHTFPAVLQSSGLYSLSSVVTVPSSSLGTQTYICNVNHKPSNTKVDKKVEPKSCDKTHTCPPCPAPELLGGPSVFLFPPKPKDTLMISRTPEVTCVVVDVSHEDPEVKFNWYVDGVEVHNAKTKPREEQYNSTYRVVSVLTVLHQDWLNGKEYKCKVSNKALPAPIEKTISKAKGQPREPQVCTLPPSRDELTKNQVSLSCAVKGFYPSDIAVEWESNGQPENNYKTTPPVLDSDGSFFLVSKLTVDKSRWQQGNVFSCSVMHEALHNRFTQKSLSLSPGK
light: SYVLTQPPSVSVAPGQTARITCGGNNIGSKSVHWYQQPPGQAPVVVVYDDSDRPSGIPERFSGNSNGNTATLTISRVEAGDEAVYYCQVWDSSSDHVVFGGGTKLTVLRTVAAPSVFIFPPSDEQLKSGTASVVCLLNNFYPREAKVQWKVDNALQSGNSQESVTEQDSKDSTYSLSSTLTLSKADYEKHKVYACEVTHQGLSSPVTKSFNRGEC
notes: structure 2 (fusion peptide 2, heavy, two light chains); BCMA x CD3; CH2 WT
B2: BCMA-M2-FES (bispecific antibody, human IgG1, kappa)
chain: QLQLQESGPGLVKPSETLSLTCTVSGGSISSGSYFWGWIRQPPGKGLEWIGSIYYSGITYYNPSLKSRVTISVDTSKNQFSLKLSSVTAADTAVYYCARHDGAVAGLFDYWGQGTLVTVSSASTKGPSVFPLAPSSKSTSGGTAALGCLVKDYFPEPVTVSWNSGALTSGVHTFPAVLQSSGLYSLSSVVTVPSSSLGTQTYICNVNHKPSNTKVDKKVEPKSCDKTHTGGGSAAAQVQLVESGGGVVQPGRSLRLSCAASGFTFSTYAMNWVRQAPGKGLEWVARIRSKYNNYATYYADSVKDRFTISRDDSKNTLYLQMNSLRAEDTAVYYCARHGNFGNSYVSWFAYWGQGTLVTVSSGGGGSGGGGSGGGGSQTVVTQEPSLTVSPGGTVTLTCRSSTGAVTTSNYANWVQQKPGQAPRGLIGGTNKRAPGVPARFSGSLLGGKAALTLSGVQPEDEAEYYCALWYSNLWVFGGGTKVEIKGGGGSDKTHTCPPCPAPEFEGGPSVFLFPPKPKDTLMISRTPEVTCVVVDVSHEDPEVKFNWYVDGVEVHNAKTKPREEQYNSTYRVVSVLTVLHQDWLNGKEYKCKVSNKALPASIEKTISKAKGQPREPQVYTLPPCRDELTKNQVSLWCLVKGFYPSDIAVEWESNGQPENNYKTTPPVLDSDGSFFLYSKLTVDKSRWQQGNVFSCSVMHEALHNHYTQKSLSLSPGK
heavy: B1 heavy with L238F, L239E, P335S
light: B1 light
notes: structure 2; BCMA x CD3; CH2 FES
B3: BCMA-M2-G2 (bispecific antibody, human IgG1, kappa)
chain: QLQLQESGPGLVKPSETLSLTCTVSGGSISSGSYFWGWIRQPPGKGLEWIGSIYYSGITYYNPSLKSRVTISVDTSKNQFSLKLSSVTAADTAVYYCARHDGAVAGLFDYWGQGTLVTVSSASTKGPSVFPLAPSSKSTSGGTAALGCLVKDYFPEPVTVSWNSGALTSGVHTFPAVLQSSGLYSLSSVVTVPSSSLGTQTYICNVNHKPSNTKVDKKVEPKSCDKTHTGGGSAAAQVQLVESGGGVVQPGRSLRLSCAASGFTFSTYAMNWVRQAPGKGLEWVARIRSKYNNYATYYADSVKDRFTISRDDSKNTLYLQMNSLRAEDTAVYYCARHGNFGNSYVSWFAYWGQGTLVTVSSGGGGSGGGGSGGGGSQTVVTQEPSLTVSPGGTVTLTCRSSTGAVTTSNYANWVQQKPGQAPRGLIGGTNKRAPGVPARFSGSLLGGKAALTLSGVQPEDEAEYYCALWYSNLWVFGGGTKVEIKGGGGSDKTHTCPPCPAPPVAGPSVFLFPPKPKDTLMISRTPEVTCVVVDVSHEDPEVQFNWYVDGVEVHNAKTKPREEQFNSTFRVVSVLTVVHQDWLNGKEYKCKVSNKGLPAPIEKTISKTKGQPREPQVYTLPPCRDELTKNQVSLWCLVKGFYPSDIAVEWESNGQPENNYKTTPPVLDSDGSFFLYSKLTVDKSRWQQGNVFSCSVMHEALHNHYTQKSLSLSPGK
heavy: QLQLQESGPGLVKPSETLSLTCTVSGGSISSGSYFWGWIRQPPGKGLEWIGSIYYSGITYYNPSLKSRVTISVDTSKNQFSLKLSSVTAADTAVYYCARHDGAVAGLFDYWGQGTLVTVSSASTKGPSVFPLAPSSKSTSGGTAALGCLVKDYFPEPVTVSWNSGALTSGVHTFPAVLQSSGLYSLSSVVTVPSSSLGTQTYICNVNHKPSNTKVDKKVEPKSCDKTHTCPPCPAPPVAGPSVFLFPPKPKDTLMISRTPEVTCVVVDVSHEDPEVQFNWYVDGVEVHNAKTKPREEQFNSTFRVVSVLTVVHQDWLNGKEYKCKVSNKGLPAPIEKTISKTKGQPREPQVCTLPPSRDELTKNQVSLSCAVKGFYPSDIAVEWESNGQPENNYKTTPPVLDSDGSFFLVSKLTVDKSRWQQGNVFSCSVMHEALHNRFTQKSLSLSPGK
light: B1 light
notes: structure 2; BCMA x CD3; CH2 G2CH2
B4: BCMA-M2-AG2 (bispecific antibody, human IgG1, kappa)
chain: B3 chain with C499A
heavy: B3 heavy with C233A
light: B1 light
notes: structure 2; BCMA x CD3; CH2 AG2CH2
B5: BCMA-M2-DG2 (bispecific antibody, human IgG1, kappa)
chain: B3 chain with D534A
heavy: B3 heavy with D268A
light: B1 light
notes: structure 2; BCMA x CD3; CH2 DG2CH2
B6: BCMA-M2-DG2D (bispecific antibody, human IgG1, kappa)
chain: B3 chain with D534A, D539A
heavy: B3 heavy with D268A, D273A
light: B1 light
notes: structure 2; BCMA x CD3; CH2 DG2DCH2
B7: BCMA-M2-G2D (bispecific antibody, human IgG1, kappa)
chain: B3 chain with D539A
heavy: B3 heavy with D273A
light: B1 light
notes: structure 2; BCMA x CD3; CH2 G2DCH2
B8: BCMA-M2-GG2 (bispecific antibody, human IgG1, kappa)
chain: B3 chain with C499G
heavy: B3 heavy with C233G
light: B1 light
notes: structure 2; BCMA x CD3; CH2 GG2CH2
B9: BCMA-M2-PG2 (bispecific antibody, human IgG1, kappa)
chain: B3 chain with C499P
heavy: B3 heavy with C233P
light: B1 light
notes: structure 2; BCMA x CD3; CH2 PG2CH2
B10: BCMA-M2-SG2 (bispecific antibody, human IgG1, kappa)
chain: B3 chain with C499S
heavy: B3 heavy with C233S
light: B1 light
notes: structure 2; BCMA x CD3; CH2 SG2CH2

These binders were tested against T1, Human BCMA (human, UniProt Q02223 1-54) (assay: flow cytometry, human tumor cells (BCMA+)).
T1 sequence: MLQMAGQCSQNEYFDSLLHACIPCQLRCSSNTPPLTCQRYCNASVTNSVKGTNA
Source text: 1) Cell preparation: T cells isolated from CD3-positive human whole blood were used for a CD3 end affinity detection of multifunctional antibody molecule; positive tumor cells of corresponding antigen were used for detecting affinity of tumor antigen; for example, CD38-positive MM. 1S cells (purchased from the Cell Resource Center of Shanghai Institutes for Biological Sciences, Chinese Academy of Sciences) or RPMI 8226 cells (purchased from the Cell Resource Center of Shanghai Institutes for Biological Sciences, Chinese Academy of Sciences) were used for CD38 antigen detection, and PD-L1 positive H358 cells (purchased from the Cell Resource Center of Shanghai Institutes for Biological Sciences, Chinese Academy of Sciences) were used for PD-L1 antigen detection, and so on. The cells were resuspended with 1% FBS-PBS, adjusted to a density of 4×10⁶/ml, and 50 μl of cells were taken from each well, and then plated at 2×10⁵ per well. Cell plating was operated on ice
2) Addition of the antibody: according to the experimental design, the antibody was diluted gradually, and dilution of antibody was operated on ice. For example, the initial concentration of antibody for dilution was 3000 nM, and the antibody was diluted by 3 times with 11 concentration gradients. The diluted antibody was added to a cell well at 50 μl per well, mixed well, and shaked and incubated at 4° C. 1100 rpm/min for 2 h; after washing, the cells were resuspend in 1% FBS-PBS, and a diluted secondary antibody PE anti-human IgG FC (Biolegend, 409304) was added with a final concentration of 8 ug/ml and a volume of 50 μl/well. At the same time, a well only added with cells and secondary antibody was set as a control, the components were mixed well, and incubated under shaking at 1100 rpm/min at 4° C. for 1 h;
5) Data analysis: the data was analyzed by a flow analysis software FlowJo 7.6 thereby obtaining an average fluorescence intensity of the specific antibody concentration, plotted by a Graphpad Prism 5 with the antibody concentration (nM) as an abscissa and the average fluorescence intensity as an ordinate; the EC50 value was calculated by the method of One site—Specific binding, and the EC50 value indicated the cell affinity of the antibody to the corresponding target antigen.

| Binder | EC50 [nM] |
| --- | --- |
| B1 | 20.3 |
| B2 | 15.3 |
| B3 | 19.1 |
| B4 | 23.8 |
| B5 | 17.4 |
| B6 | 18.8 |
| B7 | 19.2 |
| B8 | 23.6 |
| B9 | 24 |
| B10 | 17 |

These binders were tested against T2, Monkey CD3 (monkey) (assay: flow cytometry, monkey T cells).
T2 construct: whole, on cells; also called CD3 of monkey CD3 positive T cells

| Binder | EC50 [nM] |
| --- | --- |
| B1 | 676 |
| B2 | 630 |
| B3 | 591 |
| B4 | 668 |
| B5 | 501 |
| B6 | 641 |
| B7 | 510 |
| B8 | 636 |
| B9 | 716 |
| B10 | 461 |

These binders were tested against T3, Human CD3ε (human, UniProt P07766 23-126) (assay: flow cytometry, human T cells).
T3 construct: CD3 on T cells isolated from human whole blood
Summary of the method: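 Mean fluorescence intensity by flow cytometry was plotted against antibody concentration; EC50 came from a one site–specific binding fit. Cells (2×10⁵/well) were incubated with 11-point, 3-fold antibody dilutions starting at 3000 nM for 2 h at 4° C, then with PE anti-human IgG Fc for 1 h.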

| Binder | EC50 [nM] |
| --- | --- |
| B1 | 588 |
| B2 | 532 |
| B3 | 515 |
| B4 | 613 |
| B5 | 550 |
| B6 | 534 |
| B7 | 351 |
| B8 | 448 |
| B9 | 599 |
| B10 | 400 |
